Test results published in patent EP2226633A1.

Target: heterodimeric LIF receptor (murine gp130 and LIFRα) on transiently transfected Ba/F3 cells (mouse) (UniProt Q00560)
Assay: cell-based or functional assay

heterodimeric LIF receptor (murine gp130 and LIFRα) on transiently transfected Ba/F3 cells (mouse), sequence (Q00560 23-917, chain 1 of 2): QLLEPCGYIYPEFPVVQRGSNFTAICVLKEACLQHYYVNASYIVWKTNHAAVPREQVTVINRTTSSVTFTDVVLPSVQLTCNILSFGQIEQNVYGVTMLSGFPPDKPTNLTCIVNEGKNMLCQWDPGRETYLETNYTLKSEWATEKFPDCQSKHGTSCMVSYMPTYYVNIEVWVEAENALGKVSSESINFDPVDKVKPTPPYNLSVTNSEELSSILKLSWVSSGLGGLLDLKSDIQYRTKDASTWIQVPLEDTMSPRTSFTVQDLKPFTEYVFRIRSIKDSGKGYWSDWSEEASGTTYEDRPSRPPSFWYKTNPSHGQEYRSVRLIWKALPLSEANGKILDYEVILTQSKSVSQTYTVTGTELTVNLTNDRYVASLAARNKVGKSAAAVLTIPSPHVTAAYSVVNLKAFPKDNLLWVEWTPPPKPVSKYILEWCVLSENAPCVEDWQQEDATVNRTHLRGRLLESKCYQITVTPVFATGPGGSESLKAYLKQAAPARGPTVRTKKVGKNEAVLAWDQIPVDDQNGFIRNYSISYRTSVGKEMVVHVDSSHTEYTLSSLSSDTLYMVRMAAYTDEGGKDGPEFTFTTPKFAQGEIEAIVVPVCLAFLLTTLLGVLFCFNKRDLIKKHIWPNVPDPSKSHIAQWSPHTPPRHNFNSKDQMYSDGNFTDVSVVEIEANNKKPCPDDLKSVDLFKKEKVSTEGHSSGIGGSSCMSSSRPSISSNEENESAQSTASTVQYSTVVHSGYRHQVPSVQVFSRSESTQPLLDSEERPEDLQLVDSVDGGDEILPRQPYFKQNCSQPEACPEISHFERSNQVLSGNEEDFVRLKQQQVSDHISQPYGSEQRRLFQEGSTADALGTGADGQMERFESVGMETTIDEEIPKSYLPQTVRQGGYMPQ
heterodimeric LIF receptor (murine gp130 and LIFRα) on transiently transfected Ba/F3 cells (mouse), sequence (P42703 44-1092, chain 2 of 2, further chain): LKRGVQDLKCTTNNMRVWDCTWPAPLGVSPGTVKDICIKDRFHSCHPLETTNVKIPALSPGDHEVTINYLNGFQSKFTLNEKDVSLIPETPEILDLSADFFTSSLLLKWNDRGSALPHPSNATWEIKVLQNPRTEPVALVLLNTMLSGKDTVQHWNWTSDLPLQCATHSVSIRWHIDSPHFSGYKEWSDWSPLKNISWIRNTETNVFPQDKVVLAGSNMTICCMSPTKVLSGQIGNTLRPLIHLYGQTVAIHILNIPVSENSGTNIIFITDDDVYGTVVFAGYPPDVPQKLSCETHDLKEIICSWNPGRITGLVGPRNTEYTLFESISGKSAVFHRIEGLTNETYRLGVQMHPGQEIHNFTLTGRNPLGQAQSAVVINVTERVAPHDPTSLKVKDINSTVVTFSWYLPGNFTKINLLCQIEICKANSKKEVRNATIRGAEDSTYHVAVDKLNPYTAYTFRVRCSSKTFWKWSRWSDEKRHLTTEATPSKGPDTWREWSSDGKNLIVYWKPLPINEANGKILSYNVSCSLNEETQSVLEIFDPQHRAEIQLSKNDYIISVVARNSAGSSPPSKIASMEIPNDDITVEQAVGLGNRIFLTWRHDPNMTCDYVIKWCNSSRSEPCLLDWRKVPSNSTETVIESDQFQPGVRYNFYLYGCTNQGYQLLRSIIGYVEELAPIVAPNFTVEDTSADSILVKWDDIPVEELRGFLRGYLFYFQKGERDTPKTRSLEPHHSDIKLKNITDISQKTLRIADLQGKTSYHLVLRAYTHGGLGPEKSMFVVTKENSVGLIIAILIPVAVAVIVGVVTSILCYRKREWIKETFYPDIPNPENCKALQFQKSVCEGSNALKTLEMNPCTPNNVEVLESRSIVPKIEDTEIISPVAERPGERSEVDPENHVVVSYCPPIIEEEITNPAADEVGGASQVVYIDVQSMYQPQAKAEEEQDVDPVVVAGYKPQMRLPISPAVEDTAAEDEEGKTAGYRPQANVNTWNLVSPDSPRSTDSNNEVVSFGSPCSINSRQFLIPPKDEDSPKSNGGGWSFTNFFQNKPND

suppression of proliferation of M1 cells (MTT assay, 72 h, 15 nM hS3): 10%
Substance: human EPO splice variant hS3 (complete loss of exon 3) with C-terminal V5/His tag, produced in HEK293 cells (from UniProt P01588 28-193) (ligand)
